Consider 1 molecule from article PMC13683342, “Integrative structure of norovirus NS3 suggests a role in RNA transport”.

In this data set the target is T1, hex-ΔN61-NS3 (cc-hex fused NS3) (Human norovirus GI, UniProt Q83883 460-761).
T1 sequence: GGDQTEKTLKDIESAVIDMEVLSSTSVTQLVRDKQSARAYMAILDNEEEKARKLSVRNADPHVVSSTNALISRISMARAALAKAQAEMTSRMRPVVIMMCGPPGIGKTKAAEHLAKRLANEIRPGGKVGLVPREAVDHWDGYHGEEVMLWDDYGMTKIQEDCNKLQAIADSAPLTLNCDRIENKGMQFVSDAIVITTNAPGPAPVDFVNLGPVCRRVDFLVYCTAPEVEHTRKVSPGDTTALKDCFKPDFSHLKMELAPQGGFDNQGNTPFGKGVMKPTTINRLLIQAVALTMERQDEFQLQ
Put plainly: EMSA; 20 µM protein, 0.2 nM RNA, 5 mM Mg2+; EMSA: 25 mM HEPES pH 8.0, 30 mM NaCl, 5 mM MgCl2, 2 mM DTT, RNasin, 5% glycerol, 37 °C 1 h, 6% native PAGE; tweezers buffer not in material. The conditions noted are these: protein: recombinant; tags: N-terminal 32-residue cc-hex replaces residues 1-61; chain copies: 6; label: 5' HEX; single strand, 42 nt. (A gel shift assay detects complexes by their altered migration in electrophoresis.)

B1: RNA1 (ssRNA)
RNA: CAUUAUCGGAUAGUGGAACCUAGCUUCGACUAUCGGAUAAUC
In the case of B1, the binding result is “binds”.
